Measurements published in the MegaScale stability set (Tsuboyama et al. 2023).

B1: 2M8U (parent)
chain: TKAQVIEAFKVFDRDGNGYVTVDYLRKVLNELGDMMPADEIEEMIYEADPQNSGYVQYETFVGMLFL

Variants of: B1
Experiment: folding stability dG (cDNA display proteolysis); higher = more stable
Details: PBS, room temperature

Folding stability dG [kcal/mol] of substitutions, site by site:
V22: S 3.02; T 3.19; Q 2.95; R 3.59; Y 3.44; W 3.11; P 2.22
D23: I 3.63; G 3.56; P 3.44; Y 4.04; N 3.45; S 3.55; L 3.63; T 3.65; Q 3.65; E 3.74; H 3.84; F 4.04; K 3.64; V 3.54; R 3.33; C 3.67; A 3.58; W 3.66; M 3.5
V28: M 2.65; Y 2.78; P 1.37; W 2.77; K 2.47; I 3.32; Q 2.25; H 2.17; S 2.18; C 2.6; A 2.63; R 2.41; T 2.76; D 0.754; N 1.84; E 1.63; G 2.32; F 2.86; L 2.71
N30: A 3.62; W 3.71; S 3.63; Q 3.4; R 3.54; V 3.38; D 3.72; H 3.52; K 3.59; M 3.63; F 3.65; C 3.37; G 3.6; P 2.6; I 3.36; L 3.64; Y 3.57; T 3.44; E 3.4
R26: H 3.19; A 2.49; F 3.31; C 2.88; S 2.42; Y 3.53; Q 2.72; M 3.44; G 1.92; N 2.59; I 3.22; D 1.78; E 2.14; K 3.37; W 3.63; P 1.55; L 3.38; T 2.57; V 3.11
E31: C 3.41; D 3.62; H 3.45; F 3.53; A 3.47; K 3.49; G 3.4; I 3.66
Y24: I 4.54; C 4.02; R 3.94; V 4.38; E 4.23; A 4.19; H 4.05; G 3.47; D 4.63; N 4.5; Q 4.33; K 3.82; M 4.04; W 3.24; T 4.42; P 1.24; S 4.27; F 3.51; L 4
K27: Y 3.43; W 3.42; M 3.55; H 3.44; R 3.48; S 3.2; Q 3.53; I 3.66; N 3.12; A 3.38; G 2.92; T 3.26; L 3.72; F 3.58; C 3.05; P 2.04; D 2.89; E 3.28; V 3.62
L25: Y 1.83; F 2.91; S 1.72; D 1.27; K 2.23; V 3.01; G 1.92; T 2.65; N 1.47; I 3.14; M 2.69; A 3.2; W 2.53; Q 2.02; R 2.26; E 2.09; P 1.25; C 2.88; H 1.16
L29: I 3.53; V 3.28; E 1.12; K 1.33; S 2.06; Q 1.4; R 1.52; T 2.46; C 3.16; P 1.19; Y 2.22; G 1.58; D 0.756; M 3.58; W 2.91; N 1.86; A 2.57; F 3.2; H 1.67
